Data from paper PMC6032367, “A peptide‐display protein scaffold to facilitate single molecule force studies of aggregation‐prone peptides” (Protein Science : A Publication of the Protein Society, 2018).
One block for each molecule: values may come before it.

Assays:
[1] = biological target: pL αSyn71–82 (protein L W47Y I60F N14C scaffold with αSyn residues 71–82 inserted in the extended β3‐β4 loop); assay: dynamic force spectroscopy (AFM); pL αSyn71–82 on AFM tip and surface; retraction speeds 200 to 5000 nm s^-1; Bell‐Evans fit, dissociation rate constant in the absence of force; 20 mM HEPES pH 7.5, room temperature
[2] = biological target: pL αSyn71–82 (protein L W47Y I60F N14C scaffold with αSyn residues 71–82 inserted in the extended β3‐β4 loop); assay: single molecule force spectroscopy (AFM); pL constructs coupled through Cys14 to maleimide‐PEG on both the AFM tip and the surface; retraction 1 μm s^-1 (1000 nm s^-1), approach 2 µm s^-1; 20 mM HEPES pH 7.5, room temperature; triplicate
[3] = biological target: pL αSyn71–82 (protein L W47Y I60F N14C scaffold with αSyn residues 71–82 inserted in the extended β3‐β4 loop); assay: native MS; ESI–MS of 100 μM pL constructs in 100 mM ammonium acetate pH 6.8, equal volumes mixed for heterodimers; after quiescent incubation for 4 h at 25°C
[4] = biological target: pL γSyn71–82 (protein L W47Y I60F N14C scaffold with γSyn residues 71–82 inserted in the extended β3‐β4 loop); assay: as above
[5] = biological target: T1, αSyn71–82 synthetic peptide; assay: native MS; ESI–IMS–MS of synthetic peptides alone and in a 1:1 mixture; 100 μM final in 100 mM ammonium acetate pH 6.8; conditions: remark: other sources report otherwise
T1 chain: VTGVTAVAQKTV

[6] = biological target: T2, αSyn71–82 synthetic peptide; assay: cell-based or functional assay
T2 peptide: Ac-VTGVTAVAQKTV-NH2

[7] = biological target: the molecule itself; assay: native MS; ESI–IMS–MS of synthetic peptides alone and in a 1:1 mixture; 100 μM final in 100 mM ammonium acetate pH 6.8

Molecule: pL αSyn71–82 (protein L W47Y I60F N14C scaffold with αSyn residues 71–82 inserted in the extended β3‐β4 loop)
koff [1]: 0.18 s⁻¹
lifetime [1]: 6 s
hit rate [2]: 4%
rupture force (F R) [2]: 57 pN
stoichiometry N [3]: < 3

Molecule: pL γSyn71–82 (protein L W47Y I60F N14C scaffold with γSyn residues 71–82 inserted in the extended β3‐β4 loop)
hit rate (frequency of detection) [2]: 3.2%
rupture force (F R) [2]: 53 pN
stoichiometry N [4]: 2

stoichiometry N [5]: < 14
Molecule: Ac-VTGVTAVAQKTV-NH2 [αSyn71–82 synthetic peptide]

increase in lag‐time of ThT fluorescence of the 1:1 peptide mixture compared with αSyn71–82 alone [6]: 2.5 fold
increase in lag‐time of ThT fluorescence of the 1:1 peptide mixture compared with γSyn71–82 alone [6]: 5.7 fold
B1: γSyn71–82 synthetic peptide (peptide)
peptide: Ac-VSSVNTVATKTV-NH2
notes: γ‐synuclein, central NAC region, residues 71–82; also called central NAC region of γSyn; source: bought: Genscript, synthetic peptide, >99% purity
stoichiometry N [7]: ≤ 14
